Data published in the supplement of paper PMC6755084.

B1: minF1; a variant is named by its letters at N, in order (parent)
chain: GAGACCGCAACTGAAAAGTTGTTNNNNAANNNNNGGNTNAATTTCTGCACGTAGAAGCAAAAGGC

Variants of: B1
Assay: fraction ligated after 30 min (ligated reads / total reads); higher = more ligase activity
Conditions: with F1*subA RNA substrate (template-directed ligation), 42 °C
Outline: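 RNAs for minimized ligase ribozyme variants were transcribed with T7 from PCR-amplified oligo-pool templates and purified on gels. Ligated and unligated species were resolved on gels, converted to cDNA with barcoded primers, and read on a MiSeq with core bases filtered at quality ≥30. Fraction ligated per variant is the ratio of ligated reads to total reads.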

Going from TCAGATGATGT to ACAGATGGGTG, the fraction ligated rises from 0.00279 to 0.00695.

First: ATAGAGGATGT
Second: TCAGTGGTGTG T23A
The fraction ligated of the first is lower: 0.00209 for the first, 0.00335 for the second.

Compared with ACAGTGGATGT A40G, AGAAGGATGTG A29T is lower in fraction ligated: 0.017 for the first, 0.00349 for the second.

First: ATAATGGAGTG
Second: ATAGAGGATTG
The fraction ligated of the first is lower: 0.00187 for the first, 0.00226 for the second.

Compared with TCAGATGATTG, ACAGTGGAGTG is lower in fraction ligated: 0.00341 for the first, 0.00292 for the second.

Going from TCAGATGGTTG to TCGATGGATTG, the fraction ligated rises from 0.00217 to 0.127.

Compared with ATAGATGAGTG, ACAGATGAGTG is higher in fraction ligated: 0.00181 for the first, 0.00298 for the second.

Going from TCAGATGGAGT T23A A40G to TCAGATGGTGT, the fraction ligated falls from 0.0153 to 0.00178.

Compared with TCAGATGGTGT A40G, ACAGGGATGTG A29T is lower in fraction ligated: 0.00521 for the first, 0.00506 for the second.

Going from ATAGATATGTG to TCAGATGGGTG T23A, the fraction ligated falls from 0.00482 to 0.00356.

First: ACGATGATGTG
Second: TCAGTGGTGTG
The fraction ligated of the first is lower: 0.00228 for the first, 0.00248 for the second.

First: TCAGAGGATGT A40G
Second: TCAGAGGATGT T23A A40G
The fraction ligated of the first is higher: 0.00564 for the first, 0.00415 for the second.

Going from ACAGATGGTGT to TCAGAGGTGTG, the fraction ligated falls from 0.002 to 0.00137.

Compared with ATAATGATGTG, TCAGATGGAGT T23A is lower in fraction ligated: 0.00474 for the first, 0.00368 for the second.

Going from ACGAGGATGTG to ATAGTGATGTG, the fraction ligated rises from 0.00409 to 0.00472.

Going from ATAGGGATGTG to TCGATGATGTG, the fraction ligated rises from 0.00301 to 0.00384.

Going from ATCAAAATGTG A28G to TCAGATGGAGT G35T T38G A40T A41G, the fraction ligated falls from 0.00354 to 0.000378.

Compared with TCAGAGGATGT, TCAGATATGTG T23A is lower in fraction ligated: 0.00375 for the first, 0.000828 for the second.

First: TCAGATGATGT T23A A40G
Second: ATAGAGGTGTG
The fraction ligated of the first is higher: 0.0104 for the first, 0.00246 for the second.

First: TCAGATGGATG T23A
Second: ATAGATGTGTG
The fraction ligated of the first is lower: 0.00344 for the first, 0.00472 for the second.

First: ATAGTGGATGT A40G
Second: TCAGATGGAGT G35T A40G
The fraction ligated of the first is lower: 0.0158 for the first, 0.0226 for the second.

First: ATAAGGATGTG
Second: ACAGAGGATTG
The fraction ligated of the first is lower: 0.00241 for the first, 0.0039 for the second.

Compared with ATAGGGATGTG A29T, ATAGATGGAGT G35T T38G A40T A41G is lower in fraction ligated: 0.0314 for the first, 0.00159 for the second.

Compared with ATAGATGGAGT G35T, ACAGGGATGTG is lower in fraction ligated: 0.00557 for the first, 0.00108 for the second.

First: TCGAGGATGTG T23A
Second: TCAGTGGATTG T23A
The fraction ligated of the first is lower: 0 for the first, 0.0201 for the second.

Compared with TCGATGGTGTG, ACAGATGGTGT A40G is higher in fraction ligated: 0.00336 for the first, 0.00805 for the second.

First: ATAGTGGAGTG
Second: ACGAGGATGTG A29T
The fraction ligated of the first is lower: 0 for the first, 0.0139 for the second.

First: TCAGAGGAGTG T23A
Second: ACGATGGAGTG
The fraction ligated of the first is lower: 0 for the first, 0.00302 for the second.

Compared with TCAGGGATGTG T23A A29T, ACAGAGGATGT A40G is lower in fraction ligated: 0.0174 for the first, 0.00295 for the second.

Compared with ATAGATGGTTG, ATAGATGGAGT G35T T38G A40T is lower in fraction ligated: 0.00545 for the first, 0.000429 for the second.

Compared with TCGATGGAGTG, ATCAAAGATGT A28G is higher in fraction ligated: 0.00518 for the first, 0.00546 for the second.

First: ATAGTGGATGT
Second: TCAGTGGATGT A40G
The fraction ligated of the first is lower: 0.0055 for the first, 0.0137 for the second.

Compared with TCGATGGATTG T23A, TCAGAGGATTG is lower in fraction ligated: 0.116 for the first, 0.00228 for the second.

Going from ACAGAGGATGT to TCAGTGGAGTG T23A, the fraction ligated rises from 0.00215 to 0.00419.

First: TCAGATGGAGT T23A G35T
Second: ACAGATGGAGT G35T T38G A40T A41G
The fraction ligated of the first is higher: 0.0188 for the first, 0.000565 for the second.

First: ATAAGGATGTG A29T
Second: ACAGATGGAGT G35T
The fraction ligated of the first is higher: 0.0199 for the first, 0.014 for the second.

First: TCAGATGGAGT
Second: TCGAGGATGTG
The fraction ligated of the first is lower: 0.00402 for the first, 0.00582 for the second.

Going from TCGATGGATGT T23A A40G to ATCAAAGATGT A28G A40G, the fraction ligated falls from 0.0572 to 0.0398.

First: TCGATGGATGT T23A
Second: ATCAAAGATTG A28G
The fraction ligated of the first is higher: 0.0123 for the first, 0.00113 for the second.

Going from ATAATGGTGTG to ATAGTGGTGTG, the fraction ligated falls from 0.00284 to 0.0019.

First: ATAGATGGGTG
Second: TCAGTGGATGT
The fraction ligated of the first is lower: 0.00409 for the first, 0.00577 for the second.

First: TCAGATGAGTG T23A
Second: TCAGATGATGT A40G
The fraction ligated of the first is lower: 0.00316 for the first, 0.011 for the second.

Compared with TCGAGGATGTG T23A A29T, TCAGATGTGTG is lower in fraction ligated: 0.013 for the first, 0.00186 for the second.

First: ACAGATGGTTG
Second: AGAAGGATGTG T23A A29T
The fraction ligated of the first is lower: 0.00164 for the first, 0.00429 for the second.

Going from ACAGATGGAGT to TCAGATGAGTG, the fraction ligated rises from 0.00252 to 0.00318.

Compared with ATAGATGGATG, ATAGATGGAGT G35T A40G is higher in fraction ligated: 0.00358 for the first, 0.0113 for the second.

Going from TCAGTGGATGT T23A A40G to ACAGATGATGT A40G, the fraction ligated falls from 0.0264 to 0.00654.

Compared with TCGATGGAGTG T23A, TCAGATGTGTG T23A is lower in fraction ligated: 0.00843 for the first, 0.00194 for the second.

Compared with ACAGATGGAGT A40G, TGAAGGATGTG A29T is lower in fraction ligated: 0.00662 for the first, 0.00393 for the second.

Going from ATAGATGATGT A40G to TCAGAGGATGT T23A, the fraction ligated falls from 0.00341 to 0.00218.

First: ACAGTGGATTG
Second: TCAGTGGAGTG
The fraction ligated of the first is higher: 0.013 for the first, 0.00343 for the second.

First: TCGATGATGTG T23A
Second: TCAGAGGTGTG T23A
The fraction ligated of the first is higher: 0.00559 for the first, 0.0038 for the second.

First: ATAGATGGAGT
Second: TCAGATGGAGT T23A G35T A40G
The fraction ligated of the first is lower: 0.00474 for the first, 0.0397 for the second.

Compared with ATAGATGATGT, ATAGAGGAGTG is higher in fraction ligated: 0.000906 for the first, 0.00165 for the second.

Compared with ACAGATATGTG, ACAGTGATGTG is higher in fraction ligated: 0.000749 for the first, 0.00182 for the second.

Compared with TCAGTGATGTG T23A, TCGAGGATGTG A29T is higher in fraction ligated: 0.00342 for the first, 0.0105 for the second.

Going from TCAGATGGATG to TCAGTGGATTG, the fraction ligated rises from 0.00236 to 0.0102.

First: TCGATGGATGT
Second: ACAGATGATGT
The fraction ligated of the first is higher: 0.0171 for the first, 0.00327 for the second.

Compared with ACGATGGATGT, TCAGTGATGTG is lower in fraction ligated: 0.0146 for the first, 0.00229 for the second.

First: TCAGATGGTTG T23A
Second: ATAATGGATGT
The fraction ligated of the first is lower: 0.00182 for the first, 0.00257 for the second.

First: ATAGTGGATTG
Second: AGAAGGATGTG T23C A29T
The fraction ligated of the first is lower: 0.00612 for the first, 0.0071 for the second.

Compared with ACAGAGATGTG, ATAGAGGATGT A40G is higher in fraction ligated: 0.0018 for the first, 0.00594 for the second.

Going from ACAGATGATTG to ACAGTGGTGTG, the fraction ligated falls from 0.00209 to 0.00205.

First: CGAAGGATGTG A29T
Second: ATAGATGGAGT A40G
The fraction ligated of the first is higher: 0.0086 for the first, 0.00598 for the second.

First: TCAGAGGATTG T23A
Second: ACGATGGATTG
The fraction ligated of the first is lower: 0.00302 for the first, 0.0663 for the second.

First: ACAGAGGAGTG
Second: ACAGATGGAGT G35T A40G
The fraction ligated of the first is lower: 0.00131 for the first, 0.0182 for the second.

Compared with TCAGGGATGTG T23A, ATAGATGGTGT A40G is higher in fraction ligated: 0.00448 for the first, 0.00815 for the second.

Going from TCAGTGGATGT T23A to TGAAGGATGTG T23A A29T, the fraction ligated falls from 0.00804 to 0.00369.

First: ACAGATGGAGT G35T T38G A40T
Second: TCAGATGGAGT G35T T38G A40T
The fraction ligated of the first is higher: 0.00236 for the first, 0.00171 for the second.

Going from TCAGGGATGTG A29T to ATAGATGATTG, the fraction ligated falls from 0.00613 to 0.00301.

Going from ACGATGGATGT A40G to TCGATGGTGTG T23A, the fraction ligated falls from 0.0424 to 0.00501.

Compared with TCAGATATGTG, TCAGATGGTGT T23A A40G is higher in fraction ligated: 0.000901 for the first, 0.00684 for the second.

Going from TCAGGGATGTG to TCAGATGGAGT T23A G35T T38G A40T A41G, the fraction ligated falls from 0.00365 to 0.000947.

Compared with ATCAAAGAGTG A28G, ACAGAGGTGTG is higher in fraction ligated: 0.00276 for the first, 0.00336 for the second.

Compared with TCAGATGGTGT T23A, ATAGAGATGTG is lower in fraction ligated: 0.00338 for the first, 0.00202 for the second.

First: TCAGATGGAGT A40G
Second: TCAGATGATTG T23A
The fraction ligated of the first is higher: 0.00532 for the first, 0.00216 for the second.

First: TCAGAGATGTG T23A
Second: ATAGATGGTGT
The fraction ligated of the first is higher: 0.00422 for the first, 0.00303 for the second.

First: TCGATGGATGT A40G
Second: ACAGATGGATG
The fraction ligated of the first is higher: 0.0635 for the first, 0.000541 for the second.

Going from TCAGATGATGT T23A to ACGATGGTGTG, the fraction ligated rises from 0.00365 to 0.00555.

Compared with ACAGTGGATGT, ATAATGGATTG is lower in fraction ligated: 0.00954 for the first, 0.00677 for the second.

Compared with ACAGATGTGTG, TCAGATGGAGT T23A G35T T38G A40T is lower in fraction ligated: 0.00297 for the first, 0.00248 for the second.

Compared with ATAATGGATGT A40G, TCAGATGGAGT G35T is higher in fraction ligated: 0.0127 for the first, 0.0137 for the second.

Compared with TCAGAGGAGTG, CGAAGGATGTG T23A A29T is higher in fraction ligated: 0.00402 for the first, 0.00782 for the second.

Variant TCAGATGGGTG has a fraction ligated of 0.00281.
